{"source": "patent US20240059794A1", "about": "(PARASOL BIOTECH, published 2024)", "binders": {"B1": {"name": "C30 (VHH)", "VHH": "QVQLVESGGGLVQPGGSLRLSCAASGSIFRVYGMDWYRQAPGKQRELVASIFLSGRTNYADAVKGRFTLSRDNAKNTMYLQMNSLKPEDTAVYYCNAGETTASSVRQYWGQGTQVTVSS", "notes": "Alpaca VHH tested as culture supernatant of IPTG-induced HB2151 bacteria (pComb3XSS phagemid); also called clone C30"}, "B2": {"name": "C31 (VHH)", "VHH": "B1 VHH with Q1A, F52W, V117I", "notes": "Alpaca VHH tested as culture supernatant of IPTG-induced HB2151 bacteria (pComb3XSS phagemid); also called clone C31"}, "B3": {"name": "C12 (VHH)", "VHH": "QVQLVESGGGLVQPGGSLRLSCAASSNIFRAYGMDWYRQAPGKQREMVATIWLSGRSTYTDAVKGRFTISRDNAKNTVYLQMNNLKPEDTAVYYCNAGPTTASSVRQYWGQGTQVTVSS", "notes": "Alpaca VHH tested as culture supernatant of IPTG-induced HB2151 bacteria (pComb3XSS phagemid); also called clone C12"}, "B4": {"name": "C13 (VHH)", "VHH": "B3 VHH with S57T, N84S, P99A, T100P, V105G", "notes": "Alpaca VHH tested as culture supernatant of IPTG-induced HB2151 bacteria (pComb3XSS phagemid); also called clone C13"}, "B5": {"name": "C21 (VHH)", "VHH": "QVQLVESGGGLVQPGGSLRLSCTSSSNIFRIYGMDWYRQAPGKQREIVATIYLSGRTTYSDAVKGRFTISRDNAKDTVYLQMNSLKPEDTAVYYCNAGEPTASSVRQYWGQGTQVTVSS", "notes": "Alpaca VHH tested as culture supernatant of IPTG-induced HB2151 bacteria (pComb3XSS phagemid); also called clone C21"}, "B6": {"name": "C15 (VHH)", "VHH": "B3 VHH with L11V, K64Q", "notes": "Alpaca VHH tested as culture supernatant of IPTG-induced HB2151 bacteria (pComb3XSS phagemid); also called clone C15"}, "B7": {"name": "C27 (VHH)", "VHH": "B5 VHH with Q1E, R30K, D76N, S84T, P100T", "notes": "Alpaca VHH tested as culture supernatant of IPTG-induced HB2151 bacteria (pComb3XSS phagemid); also called clone C27"}, "B8": {"name": "C08 (VHH)", "VHH": "EVQLVESGGGLVQPGGSLRLSCAASSNIFRAYGMGWYRQAPGKQREMVAAIWLSGRTEYADAVQGRFTVSRDNAKNTVYLQMNSLKPEDTAVYYCNAGPPTATSVRQYWGQGTQVTVSS", "notes": "Alpaca VHH tested as culture supernatant of IPTG-induced HB2151 bacteria (pComb3XSS phagemid); also called C8; clone C08"}}, "note": "Changes are numbered by the printed parent chain."}
{"target": "T1, GUCY2C protein (Ser24-Gln430) (Homo sapiens (Human), UniProt P25092 24-430)", "T1 construct": "Synthesized by GenScript and used as the immunogen; No tags are stated; also called extracellular region of the artificially synthesized GUCY2C protein; Protein GUCY2C", "T1 sequence (P25092 24-430)": "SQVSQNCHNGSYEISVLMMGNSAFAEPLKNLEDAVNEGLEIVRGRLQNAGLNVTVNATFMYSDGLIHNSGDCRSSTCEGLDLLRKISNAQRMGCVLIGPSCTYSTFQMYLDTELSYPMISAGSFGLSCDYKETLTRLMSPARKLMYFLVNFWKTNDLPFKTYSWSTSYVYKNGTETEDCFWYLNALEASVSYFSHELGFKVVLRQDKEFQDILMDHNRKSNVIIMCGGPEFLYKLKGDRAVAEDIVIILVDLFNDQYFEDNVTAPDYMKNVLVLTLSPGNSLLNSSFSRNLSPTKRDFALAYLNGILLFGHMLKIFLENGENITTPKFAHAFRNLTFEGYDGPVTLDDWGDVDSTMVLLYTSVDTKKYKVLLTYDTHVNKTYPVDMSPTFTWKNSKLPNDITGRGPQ", "test": "Screening ELISA: culture supernatant of the IPTG-induced HB2151 clone on a plate coated with 1 ug/ml GUCY2C; detection with peroxidase goat anti-alpaca IgG (VHH domain), TMB, absorbance at 450 nm; VHH concentration not given; negative control (NC) bar in the same chart is labelled 0.15", "procedure": "The phages of 3 rounds screening were transfected into HB2151 bacteria, and 100 ul of infected HB2151 bacteria were taken to scrape on the surface of 2×YT-AG solid culture dish. 96 single clones were picked and added into 2×YT medium, then cultured in a 96 deep-well plate. 0.8 mM IPTG was added into the medium when the bacteria grew to logarithmic phase and were cultured overnight at 25° C. The supernatant of medium was added to the 1 ug/ml GUCY2C coated ELISA plate which was contained in two control wells. After incubating for 2 hours at 37° C., the plate was washed 3 times with PBST. Peroxidase AffiniPure Goat anti-Alpaca IgG, VHH domain (Jackson Immumo Research) was added into the Elisa plate, incubated at 37° C. for 1 hour and washed 3 times with PBST. TMB solution was added for 20 minutes, then the reaction was stopped with 2M sulfuric acid. The absorbance value at 450 nm wavelength was read on the microplate reader (FIG. 2). Clones with an absorbance value 2.1 times higher than the negative control were considered positive clones and were sent to sequencing."}
{"binder": "B1", "OD450": 0.93}
{"binder": "B2", "OD450": 0.45}
{"binder": "B3", "OD450": 2}
{"binder": "B4", "OD450": 0.8}
{"binder": "B5", "OD450": 0.42}
{"binder": "B6", "OD450": 1}
{"binder": "B7", "OD450": 1.47}
{"binder": "B8", "OD450": 0.86}
